According to the supplement of paper PMC11246515:
± gives the standard deviation of the averaged measurements.

Experiment: total protein half-life in vivo (active degradation + dilution); higher = more stable protein
[1] = E. coli NCM3722 delta-clpP delta-lon delta-hslV, growth: N-lim chemostat, doubling time 6 h
[2] = E. coli NCM3722 delta-clpP, growth: N-lim chemostat, doubling time 6 h
[3] = E. coli NCM3722 delta-hslV, growth: N-lim chemostat, doubling time 6 h
[4] = E. coli NCM3722 delta-lon, growth: N-lim chemostat, doubling time 6 h
[5] = E. coli NCM3722 delta-smpB, growth: N-lim chemostat, doubling time 6 h
[6] = wild type E. coli NCM3722, growth: C-lim chemostat, doubling time 3 h
[7] = wild type E. coli NCM3722, growth: C-lim chemostat, doubling time 6 h
[8] = wild type E. coli NCM3722, growth: C-lim chemostat, doubling time 12 h
[9] = wild type E. coli NCM3722, growth: N-lim chemostat, doubling time 6 h
[10] = wild type E. coli NCM3722, growth: N-lim chemostat, doubling time 12 h
[11] = wild type E. coli NCM3722, growth: P-lim chemostat, doubling time 6 h
[12] = wild type E. coli NCM3722, growth: P-lim chemostat, doubling time 12 h

Sequence	total protein half-life in vivo [1] [h]	total protein half-life in vivo [2] [h]	total protein half-life in vivo [3] [h]	total protein half-life in vivo [4] [h]	total protein half-life in vivo [5] [h]	total protein half-life in vivo [6] [h]	total protein half-life in vivo [7] [h]	total protein half-life in vivo [8] [h]	total protein half-life in vivo [9] [h]	total protein half-life in vivo [10] [h]	total protein half-life in vivo [11] [h]	total protein half-life in vivo [12] [h]
MRHSLPYRMLRKRPMKLSTTVILMVSAVLFSVLLVVHLIYFSQISDMTRDGLANKALAVARTLADSPEIRQGLQKKPQESGIQAIAEAVRKRNDLLFIVVTDMQSLRYSHPEAQRIGQPFKGDDILKALNGEENVAINRGFLAQALRVFTPIYDENHKQIGVVAIGLELSRVTQQINDSRWSIIWSVLFGMLVGLIGTCILVKVLKKILFGLEPYEISTLFEQRQAMLQSIKEGVVAVDDRGEVTLINDAAQELLNYRKSQDDEKLSTLSHSWSQVVDVSEVLRDGTPRRDEEITIKDRLLLINTVPVRSNGVIIGAISTFRDKTEVRKLMQRLDGLVNYADALRERSHEFMNKLHVILGLLHLKSYKQLEDYILKTANNYQEEIGSLLGKIKSPVIAGFLISKINRATDLGHTLILNSESQLPDSGSEDQVATLITTLGNLIENALEALGPEPGGEISVTLHYRHGWLHCEVNDDGPGIAPDKIDHIFDKGVSTKGSERGVGLALVKQQVENLGGSIAVESEPGIFTQFFVQIPWDGERSNR [P0AEC8]	6.93 ± 0.11	6.33	5.74 ± 0.12	5.85 ± 0.23	5.57 ± 0.62	2.98 ± 0.12	5.883 ± 0.049	11.9 ± 0.56	6.25 ± 0.84	9.85 ± 3	6.32	11.6 ± 0.52
MRIEVTIAKTSPLPAGAIDALAGELSRRIQYAFPDNEGHVSVRYAAANNLSVIGATKEDKQRISEILQETWESADDWFVSE [P0ABR1]	3.596 ± 0.025		2.28	2.08 ± 0.25		0.937 ± 0.5				0.715		0.859
MRIGQYQLRNRLIAAPMAGITDRPFRTLCYEMGAGLTVSEMMSSNPQVWESDKSRLRMVHIDEPGIRTVQIAGSDPKEMADAARINVESGAQIIDINMGCPAKKVNRKLAGSALLQYPDVVKSILTEVVNAVDVPVTLKIRTGWAPEHRNCEEIAQLAEDCGIQALTIHGRTRACLFNGEAEYDSIRAVKQKVSIPVIANGDITDPLKARAVLDYTGADALMIGRAAQGRPWIFREIQHYLDTGELLPPLPLAEVKRLLCAHVRELHDFYGPAKGYRIARKHVSWYLQEHAPNDQFRRTFNAIEDASEQLEALEAYFENFA [P0ABT5]	4.65 ± 0.67	3.28			2.21 ± 0.077	2.88 ± 0.28	3.67 ± 0.67	6.75 ± 0.78	2.23	3.47	5.13 ± 0.28	8.25 ± 0.84
MRILHTSDWHLGQNFYSKSREAEHQAFLDWLLETAQTHQVDAIIVAGDVFDTGSPPSYARTLYNRFVVNLQQTGCHLVVLAGNHDSVATLNESRDIMAFLNTTVVASAGHAPQILPRRDGTPGAVLCPIPFLRPRDIITSQAGLNGIEKQQHLLAAITDYYQQHYADACKLRGDQPLPIIATGHLTTVGASKSDAVRDIYIGTLDAFPAQNFPPADYIALGHIHRAQIIGGMEHVRYCGSPIPLSFDECGKSKYVHLVTFSNGKLESVENLNVPVTQPMAVLKGDLASITAQLEQWRDVSQEPPVWLDIEITTDEYLHDIQRKIQALTESLPVEVLLVRRSREQRERVLASQQRETLSELSVEEVFNRRLALEELDESQQQRLQHLFTTTLHTLAGEHEA [P0AG76]	5.77 ± 0.37	4.79 ± 1.6	4.67 ± 0.67	4.54 ± 0.071	4.5 ± 0.46	2.6 ± 0.049	5.4 ± 0.27	9.11 ± 1.4	4.54 ± 0.17	7.66 ± 0.56	5.46 ± 0.31	7.9 ± 0.1
MRIPRIYHPEPLTSHSHIALCEDAANHIGRVLRMGPGQALQLFDGSNQVFDAEITSASKKSVEVKVLEGQIDDRESPLHIHLGQVMSRGEKMEFTIQKSIELGVSLITPLFSERCGVKLDSERLNKKLQQWQKIAIAACEQCGRNRVPEIRPAMDLEAWCAEQDEGLKLNLHPRASNSINTLPLPVERVRLLIGPEGGLSADEIAMTARYQFTDILLGPRVLRTETTALTAITALQVRFGDLG [P0AGL7]		5.91 ± 0.64	5.44 ± 0.24	5.41 ± 0.067	5.19 ± 0.13	2.98 ± 0.25	6.14 ± 1.9	10.1 ± 2.1	5.45 ± 0.37	10.7 ± 0.42	6.05 ± 0.38	12.31 ± 0.12
MRIRYGWELALAALLVIEIVAFGAINPRMLDLNMLLFSTSDFICIGIVALPLTMVIVSGGIDISFGSTIGLCAIALGVLFQSGVPMPLAILLTLLLGALCGLINAGLIIYTKVNPLVITLGTLYLFAGSALLLSGMAGATGYEGIGGFPMAFTDFANLDVLGLPVPLIIFLICLLVFWLWLHKTHAGRNVFLIGQSPRVALYSAIPVNRTLCALYAMTGLASAVAAVLLVSYFGSARSDLGASFLMPAITAVVLGGANIYGGSGSIIGTAIAVLLVGYLQQGLQMAGVPNQVSSALSGALLIVVVVGRSVSLHRQQIKEWLARRANNPLP [P0AFS1]							6.11	13.4				
MRISLKKSGMLKLGLSLVAMTVAASVQAKTLVYCSEGSPEGFNPQLFTSGTTYDASSVPLYNRLVEFKIGTTEVIPGLAEKWEVSEDGKTYTFHLRKGVKWHDNKEFKPTRELNADDVVFSFDRQKNAQNPYHKVSGGSYEYFEGMGLPELISEVKKVDDNTVQFVLTRPEAPFLADLAMDFASILSKEYADAMMKAGTPEKLDLNPIGTGPFQLQQYQKDSRIRYKAFDGYWGTKPQIDTLVFSITPDASVRYAKLQKNECQVMPYPNPADIARMKQDKSINLMEMPGLNVGYLSYNVQKKPLDDVKVRQALTYAVNKDAIIKAVYQGAGVSAKNLIPPTMWGYNDDVQDYTYDPEKAKALLKEAGLEKGFSIDLWAMPVQRPYNPNARRMAEMIQADWAKVGVQAKIVTYEWGEYLKRAKDGEHQTVMMGWTGDNGDPDNFFATLFSCAASEQGSNYSKWCYKPFEDLIQPARATDDHNKRVELYKQAQVVMHDQAPALIIAHSTVFEPVRKEVKGYVVDPLGKHHFENVSIE	6.22 ± 0.29	6.39 ± 1.1	6.489 ± 0.018	6.6 ± 0.13	5.83 ± 0.096	3.33 ± 0.069	6.97 ± 1.4	14.3 ± 1.9	6.058 ± 0.029	12.9 ± 0.92	6.06 ± 0.45	13.1 ± 0.31
MRITIILVAPARAENIGAAARAMKTMGFSDLRIVDSQAHLEPATRWVAHGSGDIIDNIKVFPTLAESLHDVDFTVATTARSRAKYHYYATPVELVPLLEEKSSWMSHAALVFGREDSGLTNEELALADVLTGVPMVADYPSLNLGQAVMVYCYQLATLIQQPAKSDATADQHQLQALRERAMTLLTTLAVADDIKLVDWLQQRLGLLEQRDTAMLHRLLHDIEKNITK		4 ± 0.61	3.98 ± 0.83	4.08 ± 0.37	3.38 ± 0.046		5.62 ± 0.99	7.53 ± 0.58	3.72 ± 0.22	5.26 ± 0.45	4.87 ± 0.26	11.5 ± 2.5
MRITIYTRNDCVQCHATKRAMENRGFDFEMINVDRVPEAAEALRAQGFRQLPVVIAGDLSWSGFRPDMINRLHPAPHAASA [P0AC65]	2.48 ± 0.033											
MRKFIFVLLTLLLVSPFSFAMKGIIWQPQNRDSQVTDTQWQGLMSQLRLQGFDTLVLQWTRYGDAFTQPEQRTLLFKRAAAAQQAGLKLIVGLNADPEFFMHQKQSSAALESYLNRLLAADLQQARLWSAAPGITPDGWYISAEIDDLNWRSEAARQPLLTWLNNAQRLISDVSAKPVYISSFFAGNMSPDGYRQLLEHVKATGVNVWVQDGSGVDKLTAEQRERYLQASADCQSPAPASGVVYELFVAGKGKTFTAKPKPDAEIASLLAKRSSCGKDTLYFSLRYLPVAHGILEY	5.13 ± 0.23	6.05 ± 0.4		6.25 ± 0.24	5.08 ± 1.3		6.17 ± 0.52		5.78 ± 0.16	11.8 ± 1.6	5.96 ± 0.13	12.5 ± 0.58
MRKIKIGLALGSGAARGWSHIGVINALKKVGIEIDIVAGCSIGSLVGAAYACDRLSALEDWVTSFSYWDVLRLMDLSWQRGGLLRGERVFNQYREIMPETEIENCSRRFAAVATNLSTGRELWFTEGDLHLAIRASCSIPGLMAPVAHNGYWLVDGAVVNPIPISLTRALGADIVIAVDLQHDAHLMQQDLLSFNVSEENSENGDSLPWHARLKERLGSITTRRAVTAPTATEIMTTSIQVLENRLKRNRMAGDPPDILIQPVCPQISTLDFHRAHAAIAAGQLAVERKMDELLPLVRTNI [P0AFR0]	5 ± 0.29	4.67 ± 0.2	4.923 ± 0.045	5.26	4.51 ± 0.14	2.951 ± 0.017	5.25 ± 0.36	10.6 ± 1.2	5.61 ± 0.09	8.89 ± 1.5	5.659 ± 0.02	11.7 ± 0.5
MRKILITGGAGFIGSALVRYIINETSDAVVVVDKLTYAGNLMSLAPVAQSERFAFEKVDICDRAELARVFTEHQPDCVMHLAAESHVDRSIDGPAAFIETNIVGTYTLLEAARAYWNALTEDKKSAFRFHHISTDEVYGDLHSTDDFFTETTPYAPSSPYSASKASSDHLVRAWLRTYGLPTLITNCSNNYGPYHFPEKLIPLMILNALAGKSLPVYGNGQQIRDWLYVEDHARALYCVATTGKVGETYNIGGHNERKNLDVVETICELLEELAPNKPHGVAHYRDLITFVADRPGHDLRYAIDASKIARELGWLPQETFESGMRKTVQWYLANESWWKQVQDGSYQGERLGLKG	5.27 ± 0.23	5.27 ± 0.67	5.1 ± 0.12	5.96 ± 0.64	4.74 ± 0.24		6.39 ± 0.12	11.7 ± 1.8	4.95 ± 0.23	10.7 ± 2.9	6.4 ± 0.31	12.61 ± 0.0068
MRKLWNALRRPSARWSVLALVAIGIVIGIALIVLPHVGIKVTSTTEFCVSCHSMQPVYEEYKQSVHFQNASGVRAECHDCHIPPDIPGMVKRKLEASNDIYQTFIAHSIDTPEKFEAKRAELAEREWARMKENNSATCRSCHNYDAMDHAKQHPEAARQMKVAAKDNQSCIDCHKGIAHQLPDMSSGFRKQFDELRASANDSGDTLYSIDIKPIYAAKGDKEASGSLLPASEVKVLKRDGDWLQIEITGWTESAGRQRVLTQFPGKRIFVASIRGDVQQQVKTLEKTTVADTNTEWSKLQATAWMKKGDMVNDIKPIWAYADSLYNGTCNQCHGAPEIAHFDANGWIGTLNGMIGFTSLDKREERTLLKYLQMNASDTAGKAHGDKKEEK				5.27						9.72		10.5
MRKNTYAMRYVAGQPAERILPPGSFASIGQALPPGEPLSTEERIRILVWNIYKQQRAEWLSVLKNYGKDAHLVLLQEAQTTPELVQFATANYLAADQVPAFVLPQHPSGVMTLSAAHPVYCCPLREREPILRLAKSALVTVYPLPDTRLLMVVNIHAVNFSLGVDVYSKQLLPIGDQIAHHSGPVIMAGDFNAWSRRRMNALYRFAREMSLRQVRFTDDQRRRAFGRPLDFVFYRGLNVSEASVLVTRASDHNPLLVEFSPGKPDK [P0A8U2]		4.41	2.48 ± 0.64	3.2 ± 0.29	2.65 ± 0.35	1.62 ± 0.14	2.47 ± 0.035	3.514 ± 0.023	2.76 ± 0.092	4.14 ± 0.052	2.42 ± 0.055	3.83 ± 0.2
MRKTVAFGFVGTVLDYAGRGSQRWSKWRPTLCLCQQESLVIDRLELLHDARSRSLFETLKRDIASVSPETEVVSVEIELHNPWDFEEVYACLHDFARGYEFQPEKEDYLIHITTGTHVAQICWFLLAEARYLPARLIQSSPPRKKEQPRGPGEVTIIDLDLSRYNAIASRFAEERQQTLDFLKSGIATRNPHFNRMIEQIEKVAIKSRAPILLNGPTGAGKSFLARRILELKQARHQFSGAFVEVNCATLRGDTAMSTLFGHVKGAFTGARESREGLLRSANGGMLFLDEIGELGADEQAMLLKAIEEKTFYPFGSDRQVSSDFQLIAGTVRDLRQLVAEGKFREDLYARINLWTFTLPGLRQRQEDIEPNLDYEVERHASLTGDSVRFNTEARRAWLAFATSPQATWRGNFRELSASVTRMATFATSGRITLDVVEDEINRLRYNWQESRPSALTALLGAEAENIDLFDRMQLEHVIAICRQAKSLSAAGRQLFDVSRQGKASVNDADRLRKYLARFGLTWEAVQDQHSSS				4.02								
